1 molecule from patent publication US20230086069A1 can be followed below.

The target of this test is cynomolgus CD19 (cynomolgus). Description: BLI (Octet); cynomolgus CD19.

B1: SI-63C2 (recombinant mAb with H1 humanized anti-CD19 variable sequence) (antibody, V domains shown)
VH: QVTLKESGPGLVQPGQTLRLTCAFSGFSLSTSGMGVGWIRQPPGKGLEWLAHIWWDDDKRYNPALKSRLTISKDTSKNQVYLQMNSLDAEDTAVYYCARMELWSYYFDYWGQGTLVTVSS
VL: ENVLTQSPASLSASPGERVTITCSASSSVSYMHWYQQKPGQAPKLWIYDTSKLASGVPSRFSGSGSGNDHTLTISSMEPEDFATYYCFQGSVYPFTFGQGTKLEIKR
Turning to B1, the Kd was 3.6 nM.
